This note sets out measurements from patent US6573045, “Methods and kits for discovery of RNA-binding compounds” (Ribotargets, Ltd.).

Data set [1] addresses T1, Rev peptide (Human immunodeficiency virus 1). Briefly: FRET quenching; ±23; TAMRA-Rev and DABCYL-RRE; 50 mM Tris pH 8, 50 mM KCl, room temp. The conditions noted are these: protein: synthetic; tags: chemically synthesised peptide; N-terminal TAMRA; label: 3'-DABCYL or 5'-FAM; hairpin.
Data set [2] deals with T1, Rev peptide. The experiment in a line: FRET quenching; TAMRA-Rev and DABCYL-TAR; 50 mM Tris pH 8, 50 mM KCl, room temp. The conditions noted are these: protein: synthetic; tags: chemically synthesised peptide; N-terminal TAMRA; label: 3'-DABCYL or 5'-Cy3; hairpin with bulge.

B1: RRE RNA (ssRNA)
RNA: CGUGUGGGCGCAGCGUCAAUGACGCUGCGGUACACACG
Turning to B1, the affinity with Rev peptide [1], expressed as Kd, was 0.137 µM.

B2: TAR RNA 29-mer (ssRNA)
RNA: CCCAGAUCUGAGCCUGGGAGCUCUCUGGG
Turning to B2, in the data set with Rev peptide [2], the affinity, expressed as Kd, was 11 µM. This lies in the double-digit micromolar range.
